According to patent US20120295811, “APTAMERS DIRECTED AGAINST THE MATRIX PROTEIN-1 OF TYPE A INFLUENZA VIRUSES AND USES […]” (published 2012):

B1: M1R9C1 36-mer (ssRNA)
RNA: UGCCUGACCACUCAGAAUCGAGCGCAUUGGCCGGCA
B2: M1R9C6 36-mer (ssRNA)
RNA: UGCCCUGACCAUCCUGAGGGACGCAUUGGCCGGGCA

Biological target: Nucleoprotein (NP) (Influenza A virus, UniProt P03466 SEQ:1-498)
Assay: SPR; 2 uM, 22 C
Settings: tags: His tag (pET28a, Co2+ resin purification), E. coli; label: 5'-amino-C12 linker (microarray); hairpin with bulge, internal loop and lateral small hairpin

Sequence of Nucleoprotein (NP) (P03466 whole entry): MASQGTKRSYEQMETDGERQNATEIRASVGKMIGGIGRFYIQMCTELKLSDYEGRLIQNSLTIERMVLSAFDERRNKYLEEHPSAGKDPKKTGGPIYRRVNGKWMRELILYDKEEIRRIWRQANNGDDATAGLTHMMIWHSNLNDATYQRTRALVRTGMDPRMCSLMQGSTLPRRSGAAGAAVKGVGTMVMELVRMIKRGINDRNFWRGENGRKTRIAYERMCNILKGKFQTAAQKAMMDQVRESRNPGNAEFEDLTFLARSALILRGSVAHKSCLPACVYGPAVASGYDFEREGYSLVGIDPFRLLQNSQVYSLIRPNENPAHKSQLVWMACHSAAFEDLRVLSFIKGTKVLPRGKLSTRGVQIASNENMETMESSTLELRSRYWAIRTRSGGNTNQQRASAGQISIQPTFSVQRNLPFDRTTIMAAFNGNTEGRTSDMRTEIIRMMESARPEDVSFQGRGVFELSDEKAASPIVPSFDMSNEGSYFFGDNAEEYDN

| Binder | binding result |
| --- | --- |
| B1 | no binding |
| B2 | no binding |
